Data as given in the supplement of paper PMC12764529.
± gives the half width of the 95% confidence interval.

Columns and labels:
[1] = folding stability dG unfold from trypsin proteolysis; higher = more stable
Description: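 Folding stability of de novo designed mini-proteins (<80 aa, no Cys; designed by TrROS, TrMRF, ProteinMPNN and the joint model) was measured by cDNA display proteolysis with trypsin and chymotrypsin. Each protease was used at 11 concentrations in a threefold dilution series plus a no-protease condition. K50 was inferred by Bayesian fitting of sequencing counts, and dG unfold was derived against a sequence-predicted unfolded-state K50 (Tsuboyama et al. method). Sequences shown include variable-length N-terminal GS-type padding (SAGGSAGG...) inside a display construct carrying a PA tag. Rows were kept only if the AF2 dimer inter-PAE was >15, to exclude likely homo-oligomers.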

[2] = folding stability dG unfold (combined trypsin and chymotrypsin); higher = more stable
Summary of the method: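 Digests were run with trypsin and chymotrypsin at 11 concentrations in threefold dilutions, plus a no-protease condition, on designed mini-proteins in a PA-tagged cDNA display construct. The mini-proteins were under 80 residues, had no cysteine, and were kept only when AlphaFold2 dimer inter-PAE was above 15. After sequencing, Bayesian fitting of the counts gave K50, from which unfolding free energy was derived against a sequence-predicted unfolded-state K50 and a shared folded-state K50, per protease or combined.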

Sequence: SAGGSAGGSASAPADETLTAELTSPESDERYTVLVTPEGMTAVDEAGRTTPLSPAVLVSVTAPSAGGSAGGS [r20_35_JUSTAS]
- folding stability dG unfold [1]: 0.862 ± 0.034 kcal/mol
- folding stability dG unfold [2]: 0.0934 ± 0.075 kcal/mol

Sequence: SAGGSAGGSASIEVEAEPAEIEKVAEEAPEDEEVLVRDPKTGRVYLVKPDEVVLLREVPALLSAGGSAGGSA [r18_246_JUSTAS]
- folding stability dG unfold [1]: -0.238 ± 0.086 kcal/mol
- folding stability dG unfold [2]: -0.821 ± 0.48 kcal/mol

Sequence: SAGGSAGGSASKYVKVTVRLTPPDGTTRTVEITDPNKTVEEIIASLPSDEPVEVTEVEELPPSAGGSAGGSA [r18_32_JUSTAS]
- folding stability dG unfold [1]: 0.197 ± 0.18 kcal/mol
- folding stability dG unfold [2]: -0.806 ± 0.49 kcal/mol

Sequence: SAGGSAGGSASMTITLPGMSLEEAKAAAEAHPDHPVLLETPEGRLIEITPEGVVTVRPLPESAGGSAGGSAG [r3_269_JUSTAS]
- folding stability dG unfold [1]: -0.147 ± 0.029 kcal/mol
- folding stability dG unfold [2]: -0.937 ± 0.17 kcal/mol

Sequence: SAGGSAGGSATIKIKVPPGEPYMIRIRWPDGKSHEHNVPPGEEITIPPDNFDGITPIEIQPYSAGGSAGGSA [r18_210_TrROS]
- folding stability dG unfold [1]: 0.288 ± 0.19 kcal/mol
- folding stability dG unfold [2]: 0.11 ± 0.56 kcal/mol

Sequence: SAGGSAGGSENNIVIKMKMEMPNQEMKFRFPIPADKLKDALKEGKPIKFPNGMNVRITEIIPVSAGGSAGGS [r12_432_TrROS]
- folding stability dG unfold [1]: -0.864 ± 0.81 kcal/mol
- folding stability dG unfold [2]: < -1 kcal/mol

Sequence: SAGGSAGGSGMISKTEVERLPDGTVIERKEYPEGGLTTLKIYKVPPDGVPTLVEEKLVPEKLISAGGSAGGS [r12_695_JUSTAS]
- folding stability dG unfold [1]: -0.612 ± 0.17 kcal/mol
- folding stability dG unfold [2]: -0.69 ± 0.24 kcal/mol

Sequence: SAGGSAGGSGNPDTPTSPVFVVIEKTTTVVPAPNGLYPKRTSVKISIPGGAAAGAEELIAELLSAGGSAGGS [r12_933_JUSTAS]
- folding stability dG unfold [1]: -0.2 ± 0.13 kcal/mol
- folding stability dG unfold [2]: < -1 kcal/mol

Sequence: SAGGSAGGSKKVVTYESVTLTVLVERTLPDPEGNPVTTTRVVEEPVRVTKVDFDTKVETYVVGSAGGSAGGS [r20_58_JUSTAS]
- folding stability dG unfold [1]: -0.0343 ± 0.14 kcal/mol
- folding stability dG unfold [2]: -0.623 ± 0.33 kcal/mol

Sequence: SAGGSAGGSMKPEVVEEIIKKAEEEGYEIDSVTVNPETNVPVIHFNWPSPELAEKDPELREAASAGGSAGGS [r12_482_TrMRF]
- folding stability dG unfold [1]: 0.13 ± 0.12 kcal/mol
- folding stability dG unfold [2]: < -1 kcal/mol

Sequence: SAGGSAGGSMPPEELRKKILEDPNVEVLSIEPPGPEVTLITTKYPRETETPTTETVTEKLPVPLSAGGSAGG [r6_154_JUSTAS]
- folding stability dG unfold [1]: -0.392 ± 0.33 kcal/mol
- folding stability dG unfold [2]: -0.568 ± 0.33 kcal/mol

Sequence: SAGGSAGGSMVYVVKVEIPETGEEYEFLNPEDKETVEREVRELFPDPEVKAEIEEIEVEPELLSAGGSAGGS [r12_92_TrMRF]
- folding stability dG unfold [1]: -0.175 ± 0.15 kcal/mol
- folding stability dG unfold [2]: < -1 kcal/mol

Sequence: SAGGSAGGSREIKIDDFERHNGYYYITVEIKDPNNGKKRPLEIPYPPNQPNADRFAKDIADELSAGGSAGGS [r12_415_TrROS]
- folding stability dG unfold [1]: -0.751 ± 0.43 kcal/mol
- folding stability dG unfold [2]: < -1 kcal/mol

Sequence: SAGGSAGGSSMPLTVEELLASVGPDKTATVLVPPGTSIPANITPLGTEPEGGWRTFAIPASLVSAGGSAGGS [r12_356_JUSTAS]
- folding stability dG unfold [1]: -0.137 ± 0.12 kcal/mol
- folding stability dG unfold [2]: -0.971 ± 0.25 kcal/mol

Sequence: SAGGSAGGSSMPVKVTRTPVPSSAPPSTEFLETVTYPDGTVTTYRFRRDDGSVTSVRVSTSPASAGGSAGGS [r12_1049_JUSTAS]
- folding stability dG unfold [1]: -0.535 ± 0.71 kcal/mol
- folding stability dG unfold [2]: < -1 kcal/mol

Sequence: SAGGSAGGSSPPVVTVEKYSEEPSPGVLRAVIRHPDGKEIVVTFEDLSPEEAKARAEEVAKLGSAGGSAGGS [r20_181_JUSTAS]
- folding stability dG unfold [1]: 0.00637 ± 0.068 kcal/mol
- folding stability dG unfold [2]: < -1 kcal/mol

Sequence: SAGGSAKLEINIIIPGMPPERAKRKARNIAAELRKQGLPKENIKDVDIKVIVMPWRRDPDNKWKPMSAGGSA [r15_684_TrROS]
- folding stability dG unfold [1]: 0.506 ± 0.079 kcal/mol
- folding stability dG unfold [2]: -0.0462 ± 0.12 kcal/mol

Sequence: SAGGSAMEVKIIPGSKEAIINDPENGKPIPATIIEIEPIEPDKNLFKAKVKIPSNGGWKEVLVDLGSAGGSA [r15_209_TrMRF]
- folding stability dG unfold [1]: -1.23 ± 0.39 kcal/mol
- folding stability dG unfold [2]: < -1 kcal/mol

Sequence: SAGGSAMKTLTATFSDGRSVTVEPENRTVTVSTPESSISTIPVPPDVPEVTITTPSGVTITLTVDTSAGGSA [r2_385_JUSTAS]
- folding stability dG unfold [1]: 0.287 ± 0.083 kcal/mol
- folding stability dG unfold [2]: -0.107 ± 0.12 kcal/mol

Sequence: SAGGSAMPPEWQREVVLTPVEIDIPEPPEVEVVEYDPSTGTITISVPKSPLTLTYDALTGTVHTIGSAGGSA [r15_452_JUSTAS]
- folding stability dG unfold [1]: -0.488 ± 0.61 kcal/mol
- folding stability dG unfold [2]: -0.873 ± 0.47 kcal/mol

Sequence: SAGGSAPVTPDELVERVMQYIQGQNGMPPGDTPEQMRDNGMPIKIPITVEDPDGEPIAEVEIEFPMSAGGSA [r15_391_TrROS]
- folding stability dG unfold [1]: 0.637 ± 0.054 kcal/mol
- folding stability dG unfold [2]: -0.0929 ± 0.24 kcal/mol

Sequence: SAGGSASLDIVEELIEEEIKDSKGTKIKILKPIIYYPGKGLVLSNVTVYKPDGTKISTEKKIEPVGSAGGSA [r15_967_JUSTAS]
- folding stability dG unfold [1]: -0.635 ± 0.25 kcal/mol
- folding stability dG unfold [2]: < -1 kcal/mol

Sequence: SAGGSDLITTEETFVGPGGEITLRTTTVDPKTGKTTTTTTTIPVIKGPPSDPAKIEAELKKRGIPLSAGGSA [r2_304_JUSTAS]
- folding stability dG unfold [1]: -0.186 ± 0.12 kcal/mol
- folding stability dG unfold [2]: -0.799 ± 0.29 kcal/mol

Sequence: SAGGSEKLLEEIKEKEFNIPPFIDPKTGKEYPGAKVKVKEAKKIKDTKKIKLIVETPEGKHEFILGSAGGSA [r2_314_TrMRF]
- folding stability dG unfold [1]: 0.324 ± 0.22 kcal/mol
- folding stability dG unfold [2]: < -1 kcal/mol

Sequence: SAGGSETITIEIEINGAKIKLTFTKNEDGTLTVTAEITLPNGKKLRVTMEFDKKTKEWKITSIEPVSAGGSA [r2_402_TrROS_Hall]
- folding stability dG unfold [1]: 4.37 ± 0.39 kcal/mol
- folding stability dG unfold [2]: > 6 kcal/mol

Sequence: SAGGSGLRVGDVVEAEGVVVPDPETRLRRAVFRFPDFVVVEVVEVPEDVAPDEEIPFPVRIDAIVPSAGGSA [r2_113_TrMRF]
- folding stability dG unfold [1]: -0.512 ± 0.19 kcal/mol
- folding stability dG unfold [2]: -0.645 ± 0.17 kcal/mol

Sequence: SAGGSIIIRGPSPDQAEEAARAFAKNFREQFPENPNMEIPVKVEYEDPENGQRQEYEAEIKIPYPDSAGGSA [r2_393_TrROS]
- folding stability dG unfold [1]: 0.0648 ± 0.16 kcal/mol
- folding stability dG unfold [2]: < -1 kcal/mol

Sequence: SAGGSMVTETLSVEETVEPLPDGLVRVPVRTEIRVTRKDPTTGKWTTELRTEEVVLVVPASGLEAASAGGSA [r2_184_JUSTAS]
- folding stability dG unfold [1]: 0.804 ± 0.02 kcal/mol
- folding stability dG unfold [2]: 0.195 ± 0.053 kcal/mol

Sequence: SAGGSPIYVRIEWEPPGNGKEREKEIPIKNVDSPDQLVDEAKEEAMKDGGPIKDIEVYDPDDGRPFPLSAGG [r13_771_TrROS]
- folding stability dG unfold [1]: 0.598 ± 0.11 kcal/mol
- folding stability dG unfold [2]: -0.192 ± 0.53 kcal/mol

Sequence: SAGGSQEFKFEILVPFDSPEEAKEEAEEIAKILQDHGLDVKVKVERDPNGAVKVPPTIRVDPEDGRPLSAGG [r13_697_TrROS]
- folding stability dG unfold [1]: 0.397 ± 0.1 kcal/mol
- folding stability dG unfold [2]: -0.236 ± 0.31 kcal/mol

Sequence: SAGGSSIEEIKEALKKGYNIKITPTTGTSTLVPVEELIKDPNITPETSLSDLGIKEITLIPPKNGKLVSAGG [r13_587_JUSTAS]
- folding stability dG unfold [1]: 0.0152 ± 0.075 kcal/mol
- folding stability dG unfold [2]: -0.257 ± 0.25 kcal/mol

Sequence: SAGGSSIPRALLEAMPPDAELEFEDPSSNVRIKVTRLGPDRLEITTTVYPPGPDTPVSSETTTDPLASAGGS [r16_163_JUSTAS]
- folding stability dG unfold [1]: 0.371 ± 0.11 kcal/mol
- folding stability dG unfold [2]: -0.124 ± 0.28 kcal/mol

Sequence: SAGGSTTITVPEEELEKKTGIPLGTPPEEVARKLDPVAKVTVTAVSSEKGPNGEPKRTVTFEVTPPQLSAGG [r13_723_JUSTAS]
- folding stability dG unfold [1]: -0.236 ± 0.14 kcal/mol
- folding stability dG unfold [2]: < -1 kcal/mol

Sequence: SAGGWRMEIEFPGINPEELRKAIAEAPGNKDVDVDVERIPKDGSVKIEMHGNNPADRKRIQKAVKKAFSAGG [r13_580_TrROS]
- folding stability dG unfold [1]: -0.928 ± 0.47 kcal/mol
- folding stability dG unfold [2]: < -1 kcal/mol

Sequence: SAGKNPGPVLILADGGEEGVKAVAYFPDGPLETEFPGSGDIAIVIPPGLTPSDVLKAAAVALKEAAESSAGG [r19_170_TrMRF]
- folding stability dG unfold [1]: 0.396 ± 0.037 kcal/mol
- folding stability dG unfold [2]: -0.337 ± 0.24 kcal/mol

Sequence: SAGLTAKITSVTEENGTLTVTVEVTAPDGSTFTFTATFRIEPAPAPPVKVTVETDADGNVTVTVETLDSAGG [r19_172_TrROS_Hall]
- folding stability dG unfold [1]: 5.13 ± 0.28 kcal/mol
- folding stability dG unfold [2]: > 6 kcal/mol

Sequence: SAGMSLKLEVPIDGHMIEVTVHPSPPRATAKYPEFDATAEATISEPGLINLTITDPKTGKPYPLDVTLPSAG [r14_656_JUSTAS]
- folding stability dG unfold [1]: 0.621 ± 0.023 kcal/mol
- folding stability dG unfold [2]: 0.152 ± 0.1 kcal/mol

Sequence: SAGMTITKTEEFPKGPGSVTRTTVTLPNGKVVVEETITLEDPSVTKTVTKTIEPADGTVLETTTTTVPASAG [r5_108_JUSTAS]
- folding stability dG unfold [1]: 0.302 ± 0.16 kcal/mol
- folding stability dG unfold [2]: -0.418 ± 0.3 kcal/mol

Sequence: SAGMTVEEVAAEIIASHPPSSTSVTLEVDVGPKPVRVTVEILPDPETGRPVPRVTVTDPNKNVTTEYVVSAG [r5_236_JUSTAS]
- folding stability dG unfold [1]: -0.173 ± 0.052 kcal/mol
- folding stability dG unfold [2]: -0.632 ± 0.39 kcal/mol

Sequence: SAGMVKVSLEKNPNGTPVVTVDVNEEGGPPVTVTLPVDPNETLSKVSAVLKKEGYPLPAGKKISELLSSAGG [r19_263_JUSTAS]
- folding stability dG unfold [1]: -0.72 ± 0.25 kcal/mol
- folding stability dG unfold [2]: < -1 kcal/mol

Sequence: SAGMVTFIDTTPGKAVVAVEDPATGTSRTIELDLDSPDGRPASLEEIKKVVEELVKEERPDLTVDVKLASAG [r5_293_JUSTAS]
- folding stability dG unfold [1]: -0.506 ± 0.15 kcal/mol
- folding stability dG unfold [2]: < -1 kcal/mol

Sequence: SAGPKNAKPIGTVRIRNPNGRKINIMQWPNPIMVHIKPPDGKKREVPIRGAPMEEILDELAEDGWEVEPSAG [r5_613_TrROS]
- folding stability dG unfold [1]: -0.489 ± 0.63 kcal/mol
- folding stability dG unfold [2]: < -1 kcal/mol
